{"source": "paper PMC4190069", "binders": {"B1": {"name": "74-nt biotinylated ssDNA oligo (ssDNA)", "DNA": "TTTTTTGTAAAACGACGGCCAGTGCCAAGCTTGCATGCCTGCAGGTCGACTCTAGAGGATCCCCGGGTACCGAG", "modifications": "5' biotin"}}, "key": {"[1]": {"biological_target": "RPA (wild type);Rad52 (wild type) (Saccharomyces cerevisiae;Saccharomyces …, UniProt P22336;P26754;P26755;P06778 1-621;1-273;1-122;1-471, |)", "sequence (P22336 whole entry, chain 1 of 4)": "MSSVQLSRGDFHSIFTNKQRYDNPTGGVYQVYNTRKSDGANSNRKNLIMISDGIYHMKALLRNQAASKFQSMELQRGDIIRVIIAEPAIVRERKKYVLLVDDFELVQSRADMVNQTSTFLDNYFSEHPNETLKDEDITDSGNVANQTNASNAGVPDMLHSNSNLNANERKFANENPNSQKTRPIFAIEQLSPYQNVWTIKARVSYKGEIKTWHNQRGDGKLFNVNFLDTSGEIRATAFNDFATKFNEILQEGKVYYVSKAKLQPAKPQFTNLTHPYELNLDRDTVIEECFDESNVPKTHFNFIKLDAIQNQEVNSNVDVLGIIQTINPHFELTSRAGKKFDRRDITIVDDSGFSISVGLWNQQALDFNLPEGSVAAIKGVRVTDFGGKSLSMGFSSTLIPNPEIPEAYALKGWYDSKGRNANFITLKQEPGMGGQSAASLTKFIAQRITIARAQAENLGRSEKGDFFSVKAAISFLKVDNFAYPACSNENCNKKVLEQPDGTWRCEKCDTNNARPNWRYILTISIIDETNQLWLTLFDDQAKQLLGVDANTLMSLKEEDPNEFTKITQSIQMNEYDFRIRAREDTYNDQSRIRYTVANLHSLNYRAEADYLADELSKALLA", "sequence (P26754 whole entry, chain 2 of 4)": "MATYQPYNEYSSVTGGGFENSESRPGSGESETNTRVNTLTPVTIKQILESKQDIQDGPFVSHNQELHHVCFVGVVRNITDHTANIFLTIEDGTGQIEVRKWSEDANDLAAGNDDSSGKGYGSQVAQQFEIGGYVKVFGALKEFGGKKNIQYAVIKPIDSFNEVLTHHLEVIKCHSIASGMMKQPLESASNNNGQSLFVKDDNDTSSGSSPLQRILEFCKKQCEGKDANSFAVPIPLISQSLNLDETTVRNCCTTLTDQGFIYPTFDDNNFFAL", "sequence (P26755 whole entry, chain 3 of 4)": "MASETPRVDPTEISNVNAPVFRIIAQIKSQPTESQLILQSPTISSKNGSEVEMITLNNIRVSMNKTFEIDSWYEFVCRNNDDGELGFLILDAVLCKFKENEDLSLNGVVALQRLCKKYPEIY", "sequence (P06778 whole entry, chain 4 of 4)": "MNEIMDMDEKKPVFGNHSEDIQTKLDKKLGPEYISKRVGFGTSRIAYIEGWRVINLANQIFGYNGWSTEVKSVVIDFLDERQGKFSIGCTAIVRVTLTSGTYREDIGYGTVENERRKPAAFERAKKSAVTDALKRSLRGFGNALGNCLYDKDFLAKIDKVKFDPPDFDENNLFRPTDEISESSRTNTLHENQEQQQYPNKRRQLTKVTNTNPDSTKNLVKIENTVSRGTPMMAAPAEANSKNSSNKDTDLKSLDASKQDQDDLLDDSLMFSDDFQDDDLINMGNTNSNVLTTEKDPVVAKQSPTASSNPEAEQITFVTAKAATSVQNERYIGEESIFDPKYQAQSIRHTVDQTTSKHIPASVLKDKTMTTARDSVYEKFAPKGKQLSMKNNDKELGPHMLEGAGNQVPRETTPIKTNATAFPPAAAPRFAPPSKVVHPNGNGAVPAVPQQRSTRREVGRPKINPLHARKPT", "experiment": "bead pull-down"}, "[2]": {"biological_target": "Rad51 (wild type);Rad52 (wild type);RPA (wild type) (Saccharomyces cerevisiae;Saccharomyces …, UniProt P25454;P06778;P22336;P26754;P26755 1-400;1-471;1-621;1-273;1-122, ||)", "experiment": "bead pull-down"}}, "data": [{"binder": "B1", "values": [{"measurement": "binding result", "setting": "[1]", "value": "binds"}, {"measurement": "binding result", "setting": "[2]", "value": "binds"}]}]}
